Measurements: paper PMC8202955, “The nonreceptor tyrosine kinase SRMS inhibits autophagy and promotes tumor growth by phosphorylating the scaffolding protein FKBP51” (PLoS Biology, 2021)

Assays:
[1] = molecular target: T1, SRMS (Src-related kinase lacking C-terminal regulatory tyrosine and N-terminal myristylation sites) (Homo sapiens, UniProt Q9H3Y6); experiment: peptide substrate mobility shift kinase assay with purified recombinant kinase domain ([…] SRMS, […] ATP); type: biochemical
T1 construct: human SRMS kinase domain (residues 221 to 486)
T1 sequence (Q9H3Y6 221-486): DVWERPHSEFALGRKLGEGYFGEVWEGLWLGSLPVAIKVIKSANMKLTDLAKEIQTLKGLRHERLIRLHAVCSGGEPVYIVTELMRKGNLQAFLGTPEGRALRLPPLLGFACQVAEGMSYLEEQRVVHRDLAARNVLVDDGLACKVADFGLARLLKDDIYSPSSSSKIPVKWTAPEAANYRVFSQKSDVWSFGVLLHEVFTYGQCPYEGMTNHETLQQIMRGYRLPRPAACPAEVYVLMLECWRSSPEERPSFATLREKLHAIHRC

[2] = phosphorylation at Y54

Molecule | IC50 [1] | degradation_or_half_life [2]
C=CC(=O)N1CCC[C@@H](n2nc(-c3ccc(Oc4ccccc4)cc3)c3c(N)ncnc32)C1 [ibrutinib] | 33 nM | 
FKBP51: SRMS knockout (CRISPR/Cas9) |  | decreases
FKBP51: ibrutinib (SRMS inhibitor) |  | decreases
